Data reported in paper PMC6640723 (2019).

Assays:
[1] = target: recombinant gp41 (ARP680) (HIV-1); assay: ELISA
[2] = target: gp140UG37 (ARP698, Polymun) (HIV-1 strain UG037); assay: ELISA

B1: VHH 2E7 (VHH)
VHH: DVQLQESGGGLVQPGGSLRLSCAASGNIVSIDAAGWFRQAPGKQREPVATILTGGATNYADSVKGRFTISRDNAKNTVYLQMNSLKPEDTAVYYCYAPMIYYGGRYSDYWGQGTQVTVS
**Q.** Which IC50 [1] does the source give for B1 here?
**A.** 3.2 nM

**Q.** And the IC50 [2]?
**A.** 0.9 nM
